Experimental data reported in patent US20180079819A1 (IMMUNOGEN, published 2018).
Positions count from the first letter of the chain named. Several values for one entry are separate records, joined by “and”; a condition that tells them apart may be missing. Equal values may be shown once.

B1: chCD123-3 (antibody, human IgG1, V domains shown)
VH: EFQLQQSGPEVVKPGASVKMSCKASGYTFTSYVMHWMKQKPGQGLEWIGYIKPYKDGTKYNEKFKGKATLISDKPSSTAYMELSSLTSEDSAVYYCAREGENGYYDAMDYWGQGTSVTVSS
VL: DIQMTQSPSSLSASLGGKVTITCKASQDINKYIAWYQHKPGKGPRLLIHYTSTLQPGIPSRFSGSGSGRDYSFSISNLEPEDIATYYCLQYDNLLYTFGGGTKLELKR
notes: human IgG1 and Kappa are spelled out for chCD123-6 and the same vectors and constant regions were used; also called chimeric CD123-3 antibody
B2: muCD123-6 (antibody, mouse IgG1, kappa, V domains shown)
VH: EFQLQQSGPELVKPGASVKMSCKASGYIFTSSIMHWMKQKPGQGLEWIGYIKPYNDGTKYNEKFKGKATLTSDKSSSTANMELNSLTSEDSAVYYCAREGGNDYYDTMDYWGQGTSVTVSS
VL: DIKMTQSPSSMYASLGERVTITCKASQDINSYLSWFQQKPGKSPKTLIYRVNRLVDGVPSRFSGSGSGQDYSLTISSLEYEDMGIYYCLQYDAFPYTFGGGTKLEIKR
notes: Murine monoclonal antibody purified from hybridoma supernatant; also called CD123Mu-6; CD123 Mu-6
B3: chCD123-6 (antibody, human IgG1, V domains shown)
VH: B2 VH
VL: B2 VL
notes: also called chimeric CD123-6 antibody
B4: 7G3 (antibody, V domains shown)
VH: EVQLQQSGPELVKPGASVKMSCKASGYTFTDYYMKWVKQSHGKSLEWIGDIIPSNGATFYNQKFKGKATLTVDRSSSTAYMHLNSLTSEDSAVYYCTRSHLLRASWFAYWGQGTLVTVSA
VL: DFVMTQSPSSLTVTAGEKVTMSCKSSQSLLNSGNQKNYLTWYLQKPGQPPKLLIYWASTRESGVPDRFTGSGSGTDFTLTISSVQAEDLAVYYCQNDYSYPYTFGGGTKLEIKR
B5: muCD123-14 (antibody, mouse IgG1, kappa, V domains shown)
VH: EVKLVESGGDLVKPGGSLKLSCAASGFTFSNYAMSWVRQNSEKRLEWVATINSGGSFTYYPDSVKGRFTISRDNAKDSLYLQMSSLNSEDTAMYYCARQSEAYYGYDKRTWFAYWGQGTLVTVSS
VL: DILLTQSPAILSVSPGTRVSFSCRASQSVGTSIHWYQQRPNGFPRLLIKYASESISGIPSRFSGSGSGTDFTLNINSVESEDIADYYCQQSKSWPLTFGAGTKLELKR
notes: Murine monoclonal antibody purified from hybridoma supernatant; also called CD123Mu-14; CD123 Mu-14
B6: chCD123-14 (antibody, V domains shown)
VH: B5 VH
VL: B5 VL
notes: also called chimeric CD123-14 antibody
B7: huCD123-6Gv4.7S3 (antibody, human IgG1, kappa)
heavy: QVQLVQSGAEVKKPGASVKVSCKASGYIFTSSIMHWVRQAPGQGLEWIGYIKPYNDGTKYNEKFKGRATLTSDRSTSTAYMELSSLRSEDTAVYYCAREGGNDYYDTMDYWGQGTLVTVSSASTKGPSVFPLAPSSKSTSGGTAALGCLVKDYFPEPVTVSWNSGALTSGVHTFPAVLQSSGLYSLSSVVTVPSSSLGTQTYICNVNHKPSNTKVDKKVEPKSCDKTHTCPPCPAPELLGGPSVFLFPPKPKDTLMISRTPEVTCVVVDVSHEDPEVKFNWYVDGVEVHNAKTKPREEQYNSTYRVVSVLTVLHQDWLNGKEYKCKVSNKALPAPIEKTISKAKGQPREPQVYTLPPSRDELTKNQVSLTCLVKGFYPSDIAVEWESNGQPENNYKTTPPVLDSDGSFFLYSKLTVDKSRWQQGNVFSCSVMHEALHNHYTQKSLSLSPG
light: SIQMTQSPSSLSASVGDRVTITCRASQDINSYLSWFQQKPGKAPKTLIYRVNRLVDGVPSRFSGSGSGNDYTLTISSLQPEDFATYYCLQYDAFPYTFGQGTKVEIKRTVAAPSVFIFPPSDEQLKSGTASVVCLLNNFYPREAKVQWKVDNALQSGNSQESVTEQDSKDSTYSLSSTLTLSKADYEKHKVYACEVTHQGLSSPVTKSFNRGEC
notes: also called huCD123-6Gv4.7 clone (S3); CD123-6G4.7S3
B8: huCD123-6Gv4.7 (antibody, human IgG1, kappa)
heavy: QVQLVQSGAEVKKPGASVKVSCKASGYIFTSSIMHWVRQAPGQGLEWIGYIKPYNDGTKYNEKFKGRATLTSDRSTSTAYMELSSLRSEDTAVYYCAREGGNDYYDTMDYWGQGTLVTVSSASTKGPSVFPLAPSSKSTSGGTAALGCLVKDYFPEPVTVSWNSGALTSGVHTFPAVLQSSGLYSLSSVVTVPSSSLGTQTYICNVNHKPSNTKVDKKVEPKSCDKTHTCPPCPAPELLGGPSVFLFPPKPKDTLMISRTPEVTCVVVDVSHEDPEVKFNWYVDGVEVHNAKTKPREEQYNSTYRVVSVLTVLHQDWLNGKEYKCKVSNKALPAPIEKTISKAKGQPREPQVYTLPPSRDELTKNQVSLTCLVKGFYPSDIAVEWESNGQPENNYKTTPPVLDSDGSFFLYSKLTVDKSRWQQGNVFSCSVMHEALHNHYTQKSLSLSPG
light: B7 light with S1D
notes: CDR-grafted humanized antibody; also called version 4.7 (VL Gv4 and VH Gv7)
B9: huCD123-6Gv4.7S2 (antibody, human IgG1, kappa)
heavy: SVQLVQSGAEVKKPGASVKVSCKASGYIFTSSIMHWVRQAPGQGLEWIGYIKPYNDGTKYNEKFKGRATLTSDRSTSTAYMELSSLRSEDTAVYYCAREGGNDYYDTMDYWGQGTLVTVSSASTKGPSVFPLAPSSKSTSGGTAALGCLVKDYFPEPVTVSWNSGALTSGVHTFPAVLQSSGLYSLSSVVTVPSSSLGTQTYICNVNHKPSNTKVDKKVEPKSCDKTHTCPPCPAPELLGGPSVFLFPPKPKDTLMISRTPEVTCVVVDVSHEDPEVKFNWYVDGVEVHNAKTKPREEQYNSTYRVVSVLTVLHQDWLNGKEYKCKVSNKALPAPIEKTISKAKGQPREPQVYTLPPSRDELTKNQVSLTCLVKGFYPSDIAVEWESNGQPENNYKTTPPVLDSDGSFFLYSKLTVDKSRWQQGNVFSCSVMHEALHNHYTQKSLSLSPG
light: B7 light with S1D
notes: CDR-grafted humanized antibody with an engineered N-terminal Ser on the heavy chain; also called huCD123-6Gv4.7 clone (S2)

Columns and labels:
[1] = target: T1, human CD123 (IL-3Rα, interleukin-3 receptor alpha chain) (human, UniProt P26951 19-378); test: cell-based or functional assay
[2] = target: T1, human CD123 (IL-3Rα, interleukin-3 …); test: flow cytometry on HNT-34 cells; apparent Kd
[3] = target: T2, extracellular domain of CD123/IL-3Rα (residues 1-306), histidine tagged (human, UniProt P26951 19-306); test: ELISA on plate-coated His-tagged protein, A450
T2 construct: Expressed in HEK 293T cells, purified on Ni Sepharose, coated on ELISA plates; also called wild type IL-3Rα; wild-type IL-3Rα construct
T2 sequence: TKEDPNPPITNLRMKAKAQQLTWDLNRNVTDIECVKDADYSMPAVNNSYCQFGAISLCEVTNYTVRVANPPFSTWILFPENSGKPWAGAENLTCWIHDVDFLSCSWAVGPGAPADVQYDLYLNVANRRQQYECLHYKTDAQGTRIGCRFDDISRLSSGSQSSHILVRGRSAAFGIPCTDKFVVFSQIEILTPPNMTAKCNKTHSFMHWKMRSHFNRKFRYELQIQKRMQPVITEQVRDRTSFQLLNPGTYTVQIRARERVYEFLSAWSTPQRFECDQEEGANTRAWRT
Description: (§1) The chimeric and humanized anti-IL3Rα antibodies were tested in enzyme-linked immunosorbent assay (ELISA) format for binding to the IL-3Rαproteins described above. Briefly, each His-tagged IL-3Rαprotein purified by Ni Sepharose excel chromatography was diluted to 1 ng/mL in 50 mM sodium bicarbonate buffer pH 9.6, and 100 μL was added to each well. After a 16 hr incubation at 4° C., the plates were washed with Tris-buffered saline with 0.1% Tween-20 (TBST), then blocked with 200 μL blocking buffer (TBS with 1% BSA). Next, 100 μL of primary antibody, serially diluted in blocking buffer, was added in duplicate to the ELISA wells and incubated at room temperature for 1 hr. The plates were then washed 3 times with TBST before adding 100 μL of anti-human IgG (H+L)-HRP (Jackson ImmunoResearch) to each well. Once again the plates were incubated for 1 hr at room temperature followed by three washes with TBST. Finally, 100 μL of TMB one component HRP microwell substrate (Surmodics) was added to each well and incubated for 5 min. The reaction was stopped by adding 100 μL stopping solution (Surmodics) and absorbances were read at 450 nm.
(§2) Binding of the CD123 antibodies to the chimeric IL-3Rαproteins was evaluated in comparison to the wild type IL-3Rα.

[4] = target: T3, IL3Rα (101-306) chimeric receptor protein: GMRα residues 1-114 fused to IL3Rα residues 101-306, His-tagged (human, UniProt P15509 23-114); test: ELISA on plate-coated His-tagged protein, A450
T3 construct: range 1-114; also called CRM domain of IL3Rα construct
T3 sequence: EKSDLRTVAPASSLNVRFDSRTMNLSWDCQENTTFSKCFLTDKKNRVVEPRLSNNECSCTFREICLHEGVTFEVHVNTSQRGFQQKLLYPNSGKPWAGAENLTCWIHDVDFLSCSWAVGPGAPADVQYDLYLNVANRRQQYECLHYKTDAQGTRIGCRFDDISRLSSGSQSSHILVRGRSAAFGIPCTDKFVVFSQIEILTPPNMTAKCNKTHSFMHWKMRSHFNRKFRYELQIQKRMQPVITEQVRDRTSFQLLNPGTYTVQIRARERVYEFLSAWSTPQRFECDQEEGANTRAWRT
Description: as §1, §2

[5] = target: T1, human CD123 (IL-3Rα, interleukin-3 …); test: flow cytometry on MOLM-13 cells; apparent Kd; MOLM-13 cells
[6] = target: T1, human CD123 (IL-3Rα, interleukin-3 …); test: flow cytometry on HNT-34 cells, against muCD123-3 of Example 5
[7] = target: T1, human CD123 (IL-3Rα, interleukin-3 …); test: flow cytometry on HNT-34 cells; EC50 of the binding curve taken as apparent Kd
[8] = target: T1, human CD123 (IL-3Rα, interleukin-3 …); test: flow cytometry on TF-1 cells; EC50 of the binding curve taken as apparent Kd; TF-1 cells
Description: Binding affinity was tested by flow cytometry using purified antibodies. […] TF-1 cells (5×10⁴ cells per sample) were incubated with varying concentrations of murine antibodies in 200 μL FACS buffer (DMEM medium supplemented with 2% normal goat serum). The cells were then pelleted, washed twice, and incubated for 1 hr with 100 μL of phycoerythrin (PE)-conjugated goat anti-mouse IgG-antibody (Jackson Laboratory). The cells were pelleted again, washed with FACS buffer and resuspended in 200 μL of PBS containing 1% formaldehyde. Samples were acquired using a FACSCalibur flow cytometer with the HTS multiwell sampler, or a FACS array flow cytometer, and analyzed using CellQuest Pro (all from BD Biosciences, San Diego, US). For each sample the geomean fluorescence intensity for FL2 was calculated and plotted against the antibody concentration in a semi-log plot. A dose-response curve was generated by non-linear regression and the EC₅₀ value of each curve, which corresponds to the apparent dissociation constant (Kd) of each antibody, was calculated using GraphPad Prism v4 (GraphPad software, San Diego, Calif.).

[9] = target: T1, human CD123 (IL-3Rα, interleukin-3 …); test: flow cytometry on HNT-34 cells, against muCD123-6 of Example 5
[10] = target: T1, human CD123 (IL-3Rα, interleukin-3 …); test: flow cytometry on TF-1 cells; EC50 of the binding curve taken as apparent Kd
[11] = target: T4, IL3Rα (1-100) chimeric receptor protein: IL3Rα residues 1-100 fused to GMRα residues 115-325, His-tagged (human, UniProt P15509 115-325); test: ELISA on plate-coated His-tagged protein, A450
T4 construct: range 115-325; also called IL-3Rα N-terminal domain construct
T4 sequence: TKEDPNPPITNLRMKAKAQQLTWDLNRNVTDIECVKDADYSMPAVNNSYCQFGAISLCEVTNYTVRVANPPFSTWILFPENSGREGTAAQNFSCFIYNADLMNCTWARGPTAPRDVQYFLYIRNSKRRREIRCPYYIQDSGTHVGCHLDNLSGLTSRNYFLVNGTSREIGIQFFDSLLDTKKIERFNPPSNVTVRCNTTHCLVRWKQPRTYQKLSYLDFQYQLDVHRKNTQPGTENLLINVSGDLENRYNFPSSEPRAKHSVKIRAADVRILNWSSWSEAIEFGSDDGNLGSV
Description: as §1, §2

[12] = target: T1, human CD123 (IL-3Rα, interleukin-3 …); test: flow cytometry on HNT-34 cells, against muCD123-14 of Example 5
[13] = target: T1, human CD123 (IL-3Rα, interleukin-3 …); test: flow cytometry on HNT-34 cells, apparent Kd against that of 7G3
[14] = target: T1, human CD123 (IL-3Rα, interleukin-3 …); test: flow cytometry on HNT-34 cells, PE-conjugated goat anti-human secondary

Binder	IC50, inhibition of IL3-dependent proliferation of TF-1 cells [1] [pM]	Kd [2]	EC50 [3] [pM]	IC50, inhibition of IL-3 dependent proliferation of TF-1 cells [1]	Kd [7] [pM]	other results
B1	100	100 pM	274			EC50 [4]: 852 pM; Kd [5]: 200 pM; fold difference of Kd from the murine counterpart [6]: ≤ 2.5 fold
B2		~60 pM		50 pM	70	Kd [8]: 100 pM
B3	30	40 pM and ~60 pM		20 pM		Kd [5]: 80 pM; fold difference of Kd from the murine counterpart [9]: ≤ 2.5 fold
B4		~2000 pM		330 pM and 200 pM	2000	Kd [10]: 900 pM
B5				80 pM	500	Kd [8]: 300 pM
B6	50	200 pM	65.5			EC50 [11]: 47.9 pM; fold difference of Kd from the murine counterpart [12]: ≤ 2.5 fold
B7		~60 pM		20 pM		fold higher affinity than the 7G3 antibody [13]: ≥ 30 fold; EC50 (read off the curve) [14]: ~50 pM
B8			106			EC50 [4]: 145 pM
B9		~60 pM		20 pM		fold higher affinity than the 7G3 antibody [13]: ≥ 30 fold
